Holding throughout (experiment): co-immunoprecipitation with bead-bound His-SUMO-BdRFS^Δ1-45 from crude leaf protein extract, LC-MS/MS
Common to all, as to conditions: scale: LFQ intensity

Assay [1] concerns the target Phospholipase D α1 (BdPLD α1, Bd2g04480) (Brachypodium distachyon).
For assay [2], the target named is PLAT1 (Polycystin, Lipoxygenase, Alpha-toxin, and Triacylglycerol lipase 1) (Brachypodium distachyon).
For assay [3], the target named is LPR2 (Low Phosphate Root 2; cupredoxin family) (Brachypodium distachyon).
Assay [4] deals with NCED1 (Nine-cis Epoxycarotenoid Cleavage Dioxygenase 1) (Brachypodium distachyon).
Assay [5] has as its target Abscisic acid-, Stress- and Ripening-induced 2 (BdASR2, Bd4g24650) (Brachypodium distachyon).

B1: His-SUMO-BdRFS^Δ1-45 (protein, not shown: small tags and cut ends; large carriers)
chain: RVRAAGSSHKPGGAVVRSTLVDNKKIASESFDGPRPARSEPASPISEPSSPSKVRFTAYYGGTGSDGGDDGVVEGVKKCAERDEDDFNGESETAVLRRTASMRMRSTIKAPLMAAPDWEEKEMALRKRGDLGWYRHLDMAVLDGSVVRLWTGEVTAAVQASPRERRRAGLELHLSV
Turning to B1, the average LFQ intensity in eluate in assay [1] turned out to be 9.17e+06; in assay [2], 2.25e+07; in assay [3], 2.53e+07; in assay [4] it was 1.48e+07; in assay [5] it was 5.19e+07.
